The source of these data is patent US20140030274A1 (ALPHABETA, published 2014).

The target of series [1] is Aβ(M1-40) (human). Nature of the series: cell-based or functional assay.
For a further series, the target named is Aβ(M1-42) (human). Kind of series: cell-based or functional assay.
In series [2] the target is T1, Aβ(M1-40) (human).
T1 construct: Expressed in E. coli from a synthetic gene, and the monomer was isolated by gel filtration; also called Aβ40; human Aβ1-40 peptide
Kind of series: estimate from peak shapes in gel filtration (intermediate exchange on the gel filtration time scale). How it is done:
Samples were injected from a 1 mL loop and chromatograms recorded by monitoring the absorbance at 280 nm. To monitor protein interactions, mixtures of Aβ and BRICHOS domains were injected directly after mixing or after 2 or 20 hours incubation at 37° C. in 20 mM Na-phosphate, 200 μM EDTA, 0.02% NaN₃ at pH 7.4 or pH 8.0. Fractions (0.3-0.7 ml) were collected during the chromatogram, lyophilized and analyzed by SDS PAGE in a 10-20% gradient gel.
The interaction between the BRICHOS proteins and Aβ was studied using gel filtration. Samples of 8 μM Aβ40 and 0.8 μM proSP-C BRICHOS, or 8 μM Aβ40 and 0.8 μM Bri2 BRICHOS, were incubated for 20 hours at 37° C., followed by gel filtration on a Superdex75 column, and SDS PAGE analysis of collected fractions.
The 20 h time point was chosen for investigating potential interactions between the BRICHOS protein and Aβ, because at this time point Aβ alone would have fibrillated and reached the equilibrium plateau, whereas samples containing 0.1 molar equivalent of proSP-C or Bri2 BRICHOS are still in the lag phase (c.f. FIG. 9). The data in FIG. 11 show clearly that at this time point almost all of Aβ40 is monomeric, while a minor fraction elutes together with proSP-C BRICHOS in fractions 2-6. Similar results are observed for 8 μM Aβ40 and 0.8 μM Bri2 BRICHOS (FIG. 12B). […]

Another series addresses T2, KKAAAAAAAKK
T2 construct: Non-substrate peptide; also called A7; KKA7KK
T2 peptide: KKAAAAAAAKK
Nature of the series: HDX-MS. Here is the method: (§1) Deuterated buffers were prepared by three rounds of freeze-drying of the 1 M stock Tris buffer, pH 8, and reconstitution in 99.9% D₂O (Cambridge Isotopes, Andover, Mass.) to a final Tris concentration of 20 mM. To start the incubation at 22° C., CTC (CTproSP-C) stock solution with a concentration of 0.9 mM was diluted in deuterated Tris buffer to a final deuterium content of 92.5%. For CTC/peptide and proSP-C BRICHOS/peptide interaction studies, KKV₇KK, KKV₅KK, or KKA₇KK were pre-incubated with either Tris buffer or proteins, for 10 min at 22° C., and subsequently diluted in deuterated Tris buffer. Final concentrations were 30 μM CTC or proSP-C BRICHOS and 40 μM peptide. The deuterium content was 92.5%. Aliquots of 20 μl were collected in triplicates from three separate incubations after 1, 5, 10, 30, and 60 min. Fully deuterated protein was prepared by freeze-drying a sample of CTC, followed by resuspension in 99.9% D₂O and incubation for 4 h at 50° C. Deuterium exchange was quenched by transferring aliquots to pre-chilled Eppendorf tubes containing 0.5 μL 5% trifluoroacetic acid (TFA) (Merck, Darmstadt, Germany), vortexing, and freezing in liquid nitrogen. Samples were kept in liquid nitrogen until analyzed.
(§2) Aliquots of deuterated CTC were thawed and injected into an HPLC system using a pre-chilled Hamilton syringe. The system was submersed in an ice bath during analysis. […]

In another series the target is T3, KKVVVVVVVKK
T3 construct: Substrate peptide; also called V7; KKV7KK
T3 peptide: KKVVVVVVVKK
Nature of the series: HDX-MS, 30 µM CTC and 40 µM peptide. Here is the method:
as §1, §2

A further series concerns the target T4, KKVVVVVKK
T4 construct: Substrate peptide; also called V5; KKV5KK
T4 peptide: KKVVVVVKK
Nature of the series: HDX-MS, 30 µM CTC and 40 µM peptide. Here is the method:
as §1, §2

Series [3] concerns the molecule itself. Kind of series: crystal structure, subunit to subunit in the homotrimer. Here is the method: Crystals suitable for structure determination were obtained within weeks by means of in situ proteolysis with trypsin. […] The structure presented herein was derived from crystals of seleno-methionylated protein, obtained using the sitting-drop method at 293 K and 277 K, in various concentrations ranging between 0.3-0.7 mM. A single crystal belonging to space group C2 (a=132.05 Å, b=39.33 Å, c=114.76 Å, β=99.6°) was grown from 0.1 M Bis-Tris pH 6.5 and 20% (w/v) PEG MME 5K. The crystal was soaked in 30% (w/v) PEG 400, flash-frozen in liquid nitrogen and used for data collection.
Data to 2.1 Å were collected at the European Synchrotron Radiation Facility, France, using an ADSC Q315 detector on the ID23eh1 beam line. All data were processed in MOSFLM12 and scaled in SCALA13. Data are essentially 100% complete to 2.3 Å Bragg spacing, then drop off rapidly and are only ˜60% complete in the outer resolution shell to 2.1 Å.

T1 sequence (peptide, as listed by the source): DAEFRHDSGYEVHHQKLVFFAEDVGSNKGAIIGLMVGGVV
Chain of Aβ(M1-42) (human) (peptide, as listed by the source): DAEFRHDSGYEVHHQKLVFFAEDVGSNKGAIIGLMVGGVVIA

B1: proSP-C BRICHOS (recombinant human, His59 to Ile197 of proSP-C, Examples 4-8) (other)
chain: HMSQKHTEMVLEMSIGAPEAQQRLALSEHLVTTATFSIGSTGLVVYDYQQLLIAYKPAPGTCCYIMKIAPESIPSLEALNRKVHNFQMECSLQAKPAVPTSKLGQAEGRDAGSAPSGGDPAFLGMAVNTLCGEVPLYYI
notes: Expressed in E. coli, with the thioredoxin and His6-tag removed by thrombin; Gel filtration indicates a trimer at 0 h and monomers eluting with Aβ after 20 h; also called recombinant human proSP-C BRICHOS; BRICHOS protein
Regarding B1, in the series with Aβ(M1-40) [1], the “10-fold increase in lag time of Aβ40 aggregation (ThT fluorescence)” value was roughly 0.03 equivalents, the “molar ratio above which the lag time of Aβ40 aggregation exceeds one week” value was 0.06 molar ratio and the “ratio above which Aβ40 aggregation does not occur within one week” value was 10 Aβ40 molecules per 1 proSP-C BRICHOS. For the same molecule, the “ten-fold increase in lag time of Aβ42 aggregation (ThT fluorescence)” value with Aβ(M1-42) was roughly 0.6 molar equivalents. Moreover, in the series with Aβ(M1-40) [2], the koff was 0.001 to 0.01 s⁻¹.

B2: CTproSP-C, the C-terminal domain of lung surfactant protein C precursor (residues 59-197 of human proSP-C) (other)
chain: HMSQKHTEMVLEMSIGAPEAQQRLALSEHLVTTATFSIGSTGLVVYDYQQLLIAYKPAPGTCCYIMKIAPESIPSLEALNRKVHNFQMECSLQAKPAVPTSKLGQAEGRDAGSAPSGGDPAFLGMAVNTLCGEVPLYYI
notes: also called CTC; recombinant CTC
On to B2, for which the binding result is “no binding (tested: 30 µM CTC and 40 µM peptide)” with KKAAAAAAAKK; “binds” with KKVVVVVVVKK; “binds” with KKVVVVVKK.

B3: Bri2 BRICHOS (recombinant human Bri2 BRICHOS construct as described in Peng et al. 2010) (other)
chain: GIKYIKDDVILNEPSADAPAALYQTIEENIKIFEEEEVEFISVPVPEFADSDPANIVHDFNKKLTAYLDLNLDKCYVIPLNTSIVMPPRNLLELLINIKAGTYLPQSYLIHEHMVITDRIENIDHLGFFIYRLCHDKETYKLQRRET
notes: also called Bri2 BRICHOS domain; BRICHOS protein
On to B3, for which, in the series with Aβ(M1-40) [1], the “10-fold increase in lag time of Aβ40 aggregation (ThT fluorescence)” value was roughly 0.01 equivalents and the “molar ratio above which the lag time of Aβ40 aggregation exceeds one week” value is 0.025 molar ratio. The “ten-fold increase in lag time of Aβ42 aggregation (ThT fluorescence)” value in the series with Aβ(M1-42) was roughly 0.6 molar equivalents. Besides, the koff with Aβ(M1-40) [2] is 0.001 to 0.01 s⁻¹.

B4: crystallised proSP-C BRICHOS trimer (seleno-methionylated CTC after in situ proteolysis with trypsin, residues 82-160 and 168-197 of proSP-C) (other)
chain 1: LALSEHLVTTATFSIGSTGLVVYDYQQLLIAYKPAPGTCCYIMKIAPESIPSLEALNRKVHNFQMECSLQAKPAVPTSK
chain 2: DAGSAPSGGDPAFLGMAVNTLCGEVPLYYI
modifications: seleno-methionylated protein; seleno-methionylated protein; disulfide bridge Cys121-Cys189 to the second chain
notes: There are two trimers per asymmetric unit, and data extend to 2.1 Å; Residues about 149-180 are not modelled; also called crystallized protein
In the case of B4, in series [3], the binding result is “binds”.

One may read the koff as the rate constant with which the complex falls apart.
